Results taken from publication PMC5263062.

What was measured:
Test in all cases: purified protein
purified protein [1] = substrate: CC(C)C(=O)O; conditions: 10 mM ATP, 4 mM MnSO4, pH 7.5, 37 °C
purified protein [2] = substrate: CC(C)CC(=O)O; conditions: 10 mM ATP, 4 mM MnSO4, pH 7.5, 37 °C
purified protein [3] = substrate: CCCC(=O)O; conditions: 10 mM ATP, 4 mM MnSO4, pH 7.5, 37 °C
purified protein [4] = substrate: CCCCC(=O)O; conditions: 10 mM ATP, 4 mM MnSO4, pH 7.5, 37 °C
purified protein [5] = substrate: Nc1ncnc2c1ncn2[C@@H]1O[C@H](COP(=O)(O)OP(=O)(O)OP(=O)(O)O)[C@@H](O)[C@H]1O; conditions: 200 mM butyrate, 4 mM MnSO4, pH 7.5, 37 °C, no ADP

B1: LmBuk (Buk, butyrate kinase) (Listeria monocytogenes EGD-e) (protein)
chain: MSFDVLTINPGSTSTKLAVYQGDKVLFEETVRHTMQELADFNNVQEQFDFRWQVLRRVMDAHGYDVKKLQAVVGRGGLLRPVAGGTYMVTEKMIDDLKENKYGEHASNLGAMLAKKLADELTIPSFIVDPVVVDEMQEIARISGNAFVTRKSIFHALNHKAAGRKIAKELGKDYEKMNFVIAHLGGGISVAAHRQGKAVDVNNALDGDGPFSPERSGSLPMNDFLEACFSGKWTKRELHELIVGRGGMISYLGTNSMLEVEAKVQAGEEKAIEAFDAMAYQVSKEIGACSVVLQGKVDAIILTGGLARSELFTSKIIEQTNWITSVIIEPGEDELEALNSGVQRVLAGLEKEKEY
Purified protein [1]
  Km: 7.6 ± 1.3 mM
  kcat: 0.395 ± 0.00667 s⁻¹
  kcat/Km: 51.7 M⁻¹ s⁻¹
Purified protein [2]
  Km: 57.1 ± 9.6 mM
  kcat: 0.417 s⁻¹
  kcat/Km: 7.33 M⁻¹ s⁻¹
Purified protein [3]
  Km: 50.5 ± 5.8 mM
  kcat: 0.8367 ± 0.00667 s⁻¹
  kcat/Km: 16.5 M⁻¹ s⁻¹
Purified protein [4]
  Km: 13.1 ± 3.3 mM
  kcat: 1.2 ± 0.0367 s⁻¹
  kcat/Km: 91.7 M⁻¹ s⁻¹
Purified protein [5]
  K0.5: 3.18 mM
